This passage reports binding score results from paper PMC11098746 (2024).

No end group written: not given here.

B1: ADP307 (protein)
chain: MALSVPLLLGLLGLAVAEPAVYFKEQFLDGDGWTSRWIESKHKSDFGKFVLSSGKFYGDEEKDKGLQTSQDARFYALSASFEPFSNKGQTLVVQFTVKHEQNIDCGGGYVKLFPNSLDQTDMHGDSEYNIMFGPDICGPGTKKVHVIFNYKGKNVLINKDIRCKDDEFTHLYTLIVRPDNTYEVKIDNSQVESGSLEDDWDFLPPKKIKDPDASKPEDWDERAKIDDPTDSKPEDWDKPEHIPDPDAKKPEDWDEEMDGEWEPPVIQNPEYKGEWKPRQIDNPDYKGTWIHPEIDNPEYSPDPSIYAYDNFGVLGLDLWQVKSGTIFDNFLITNDEAYAEEFGNETWGVTKAAEKQMKDKQDEEQRLKEEEEDKKRKEEEEAEDKEDDEDKDEDEEDEEDKEEDEEEDVPGQAKDEL
modifications: bait human Fc-tagged dimer
B2: ADP114 (protein)
chain: MVMSVGLSLLLPLWGRTFLLLLSVVMAQSHWPSEPSEAVRDWENQLEASMHSVLSDLHEAVPTVVGIPDGTAVVGRSFRVTIPTDLIASSGDIIKVSAAGKEALPSWLHWDSQSHTLEGLPLDTDKGVHYISVSATRLGANGSHIPQTSSVFSIEVYPEDHSDLQSVRTASPDPGEVVSSACAADEPVTVLTVILDADLTKMTPKQRIDLLHRMRSFSEVELHNMKLVPVVNNRLFDMSAFMAGPGNPKKVVENGALLSWKLGCSLNQNSVPDIHGVEAPAREGAMSAQLGYPVVGWHIANKKPPLPKRVRRQIHATPTPVTAIGPPTTAIQEPPSRIVPTPTSPAIAPPTETMAPPVRDPVPGKPTVTIRTRGAIIQTPTLGPIQPTRVSEAGTTVPGQIRPTMTIPGYVEPTAVATPPTTTTKKPRVSTPKPATPSTDSTTTTTRRPTKKPRTPRPVPRVTTKVSITRLETASPPTRIRTTTSGVPRGGEPNQRPELKNHIDRVDAWVGTYFEVKIPSDTFYDHEDTTTDKLKLTLKLREQQLVGEKSWVQFNSNSQLMYGLPDSSHVGKHEYFMHATDKGGLSAVDAFEIHVHRRPQGDRAPARFKAKFVGDPALVLNDIHKKIALVKKLAFAFGDRNCSTITLQNITRGSIVVEWTNNTLPLEPCPKEQIAGLSRRIAEDDGKPRPAFSNALEPDFKATSITVTGSGSCRHLQFIPVVPPRRVPSEAPPTEVPDRDPEKSSEDDVYLHT
modifications: bait human Fc-tagged dimer
B3: ADP098 (protein)
chain: RELPAQKWWHTGALYRIGDLQAFQGHGAGNLAGLKGRLDYLSSLKVKGLVLGPIHKNQKDDVAQTDLLQIDPNFGSKEDFDSLLQSAKKKSIRVILDLTPNYRGENSWFSTQVDTVATKVKDALEFWLQAGVDGFQVRDIENLKDASSFLAEWQNITKGFSEDRLLIAGTNSSDLQQILSLLESNKDLLLTSSYLSDSGSTGEHTKSLVTQYLNATGNRWCSWSLSQARLLTSFLPAQLLRLYQLMLFTLPGTPVFSYGDEIGLDAAALPGQPMEAPVMLWDESSFPDIPGAVSANMTVKGQSEDPGSLLSLFRRLSDQRSKERSLLHGDFHAFSAGPGLFSYIRHWDQNERFLVVLNFGDVGLSAGLQASDLPASASLPAKADLLLSTQPGREEGSPLELERLKLEPHEGLLLRFPYAA
modifications: bait human Fc-tagged dimer
B4: ADP315 (protein)
chain: MARAHWGCCPWLVLLCACAWGHTKPVDLGGQDVRNCSTNPPYLPVTVVNTTMSLTALRQQMQTQNLSAYIIPGTDAHMNEYIGQHDERRAWITGFTGSAGTAVVTMKKAAVWTDSRYWTQAERQMDCNWELHKEVGTTPIVTWLLTEIPAGGRVGFDPFLLSIDTWESYDLALQGSNRQLVSITTNLVDLVWGSERPPVPNQPIYALQEAFTGSTWQEKVSGVRSQMQKHQKVPTAVLLSALEETAWLFNLRASDIPYNPFFYSYTLLTDSSIRLFANKSRFSSETLSYLNSSCTGPMCVQIEDYSQVRDSIQAYSLGDVRIWIGTSYTMYGIYEMIPKEKLVTDTYSPVMMTKAVKNSKEQALLKASHVRDAVAVIRYLVWLEKNVPKGTVDEFSGAEIVDKFRGEEQFSSGPSFETISASGLNAALAHYSPTKELNRKLSSDEMYLLDSGGQYWDGTTDITRTVHWGTPSAFQKEAYTRVLIGNIDLSRLIFPAATSGRMVEAFARRALWDAGLNYGHGTGHGIGNFLCVHEWPVGFQSNNIAMAKGMFTSIEPGYYKDGEFGIRLEDVALVVEAKTKYPGSYLTFEVVSFVPYDRNLIDVSLLSPEHLQYLNRYYQTIREKVGPELQRRQLLEEFEWLQQHTEPLA
modifications: bait human Fc-tagged dimer
B5: ADP280 (protein)
chain: TPPNAIVFTYGHLKVADMVKTGVIMNIIGVFCVFLAVNTWGRAIFDLDHFPDWANVTHIET
modifications: also: human Fc-tagged dimer
B6: ADP106 (protein)
chain: MAGGRCGPQLTALLAAWIAAVAATAGPEEAALPPEQSRVQPMTASNWTLVMEGEWMLKFYAPWCPSCQQTDSEWEAFAKNGEILQISVGKVDVIQEPGLSGRFFVTTLPAFFHAKDGIFRRYRGPGIFEDLQNYILEKKWQSVEPLTGWKSPASLTMSGMAGLFSISGKIWHLHNYFTVTLGIP
modifications: bait human Fc-tagged dimer
B7: ADP295 (protein)
chain: MALLLCFVLLCGVVDFARSLSITTPEEMIEKAKGETAYLPCKFTLSPEDQGPLDIEWLISPADNQKVDQVIILYSGDKIYDDYYPDLKGRVHFTSNDLKSGDASINVTNLQLSDIGTYQCKVKKAPGVANKKIHLVVLVKPSGARCYVDGSEEIGSDFKIKCEPKEGSLPLQYEWQKLSDSQKMPTSWLAEMTSSVISVKNASSEYSGTYSCTVRNRVGSDQCLLRLNVVPPSNKAG
modifications: bait human Fc-tagged dimer
B8: ADP318 (protein)
chain: MAGRLWPLLLSILTATAVPGPSLRRPSRELDATPRMTIPYEELSGTRHFKGQAQNYSTLLLEEASARLLVGARGALFSLSANDIGDGAHKEIHWEASPEMQSKCHQKGKNNQTECFNHVRFLQRLNSTHLYACGTHAFQPLCAAIDAEAFTLPTSFEEGKEKCPYDPARGFTGLIIDGGLYTATRYEFRSIPDIRRSRHPHSLRTEETPMHWLNDAEFVFSVLVRESKASAVGDDDKVYYFFTERATEEGSGSFTQSRSSHRVARVARVCKGDLGGKKILQKKWTSFLKARLICHIPLYETLRGVCSLDAETSSRTHFYAAFTLSTQWKTLEASAICRYDLAEIQAVFAGPYMEYQDGSRRWGRYEGGVPEPRPGSCITDSLRSQGYNSSQDLPSLVLDFVKLHPLMARPVVPTRGRPLLLKRNIRYTHLTGTPVTTPAGPTYDLLFLGTADGWIHKAVVLGSGMHIIEETQVFRESQSVENLVISLLQHSLYVGAPSGVIQLPLSSCSRYRSCYDCILARDPYCGWDPGTHACAAATTIANRTALIQDIERGNRGCESSRDTGPPPPLKTRSVLRGDDVLLPCDQPSNLARALWLLNGSMGLSDGQGGYRVGVDGLLVTDAQPEHSGNYGCYAEENGLRTLLASYSLTVRPATPAPAPKAPATPGAQLAPDVRL
modifications: bait human Fc-tagged dimer
B9: ADP370 (protein)
chain: MICQKFCVVLLHWEFIYVITAFNLSYPITPWRFKLSCMPPNSTYDYFLLPAGLSKNTSNSNGHYETAVEPKFNSSGTHFSNLSKTTFHCCFRSEQDRNCSLCADNIEGKTFVSTVNSLVFQQIDANWNIQCWLKGDLKLFICYVESLFKNLFRNYNYKVHLLYVLPEVLEDSPLVPQKGSFQMVHCNCSVHECCECLVPVPTAKLNDTLLMCLKITSGGVIFQSPLMSVQPINMVKPDPPLGLHMEITDDGNLKISWSSPPLVPFPLQYQVKYSENSTTVIREADKIVSATSLLVDSILPGSSYEVQVRGKRLDGPGIWSDWSTPRVFTTQDVIYFPPKILTSVGSNVSFHCIYKKENKIVPSKEIVWWMNLAEKIPQSQYDVVSDHVSKVTFFNLNETKPRGKFTYDAVYCCNEHECHHRYAELYVIDVNINISCETDGYLTKMTCRWSTSTIQSLAESTLQLRYHRSSLYCSDIPSIHPISEPKDCYLQSDGFYECIFQPIFLLSGYTMWIRINHSLGSLDSPPTCVLPDSVVKPLPPSSVKAEITINIGLLKISWEKPVFPENNLQFQIRYGLSGKEVQWKMYEVYDAKSKSVSLPVPDLCAVYAVQVRCKRLDGLGYWSNWSNPAYTVVMDIKVPMRGPEFWRIINGDTMKKEKNVTLLWKPLMKNDSLCSVQRYVINHHTSCNGTWSEDVGNHTKFTFLWTEQAHTVTVLAINSIGASVANFNLTFSWPMSKVNIVQSLSAYPLNSSCVIVSWILSPSDYKLMYFIIEWKNLNEDGEIKWLRISSSVKKYYIHDHFIPIEKYQFSLYPIFMEGVGKPKIINSFTQDDIEKHQSDA
modifications: bait human Fc-tagged dimer
B10: ADP116 (protein)
chain: MVTLQTWLVQALFIFLTTESTGELLDPCGYISPESPVVQLHSNFTAVCVLKEKCMDYFHVNANYIVWKTNHFTIPKEQYTIINRTASSVTFTDIASLNIQLTCNILTFGQLEQNVYGITIISGLPPEKPKNLSCIVNEGKKMRCEWDGGRETHLETNFTLKSEWATHKFADCKAKRDTPTSCTVDYSTVYFVNIEVWVEAENALGKVTSDHINFDPVYKVKPNPPHNLSVINSEELSSILKLTWTNPSIKSVIILKYNIQYRTKDASTWSQIPPEDTASTRSSFTVQDLKPFTEYVFRIRCMKEDGKGYWSDWSEEASGITYEDRPSKAPSFWYKIDPSHTQGYRTVQLVWKTLPPFEANGKILDYEVTLTRWKSHLQNYTVNATKLTVNLTNDRYLATLTVRNLVGKSDAAVLTIPACDFQATHPVMDLKAFPKDNMLWVEWTTPRESVKKYILEWCVLSDKAPCITDWQQEDGTVHRTYLRGNLAESKCYLITVTPVYADGPGSPESIKAYLKQAPPSKGPTVRTKKVGKNEAVLEWDQLPVDVQNGFIRNYTIFYRTIIGNETAVNVDSSHTEYTLSSLTSDTLYMVRMAAYTDEGGKDGPEFTFTTPKFAQGEIE
modifications: bait human Fc-tagged dimer
B11: ADP385 (protein)
chain: TIKANSEACRDGLRAVMECRNVTHLLQQELTEAQKGFQDVEAQAATCNHTVMALMASLDAEKAQGQKKVEELEGEITTLNHKLQDASAEVERLRRENQVLSVRIADKKYYPSSQDSSSAAAPQLLIVLLGLSALLQ
modifications: bait human Fc-tagged dimer
B12: ADP107 (protein)
chain: MGTKAQVERKLLCLFILAILLCSLALGSVTVHSSEPEVRIPENNPVKLSCAYSGFSSPRVEWKFDQGDTTRLVCYNNKITASYEDRVTFLPTGITFKSVTREDTGTYTCMVSEEGGNSYGEVKVKLIVLVPPSKPTVNIPSSATIGNRAVLTCSEQDGSPPSEYTWFKDGIVMPTNPKSTRAFSNSSYVLNPTTGELVFDPLSASDTGEYSCEARNGYGTPMTSNAVRMEAVERNVGV
modifications: bait human Fc-tagged dimer

The target of this test is Circumsporozoite protein (CSP) (Plasmodium falciparum (isolate 3D7), UniProt Q7K740). As to the kind of experiment: AVEXIS screen signal:noise (double-corrected).
Circumsporozoite protein (CSP), sequence (Q7K740 19-374): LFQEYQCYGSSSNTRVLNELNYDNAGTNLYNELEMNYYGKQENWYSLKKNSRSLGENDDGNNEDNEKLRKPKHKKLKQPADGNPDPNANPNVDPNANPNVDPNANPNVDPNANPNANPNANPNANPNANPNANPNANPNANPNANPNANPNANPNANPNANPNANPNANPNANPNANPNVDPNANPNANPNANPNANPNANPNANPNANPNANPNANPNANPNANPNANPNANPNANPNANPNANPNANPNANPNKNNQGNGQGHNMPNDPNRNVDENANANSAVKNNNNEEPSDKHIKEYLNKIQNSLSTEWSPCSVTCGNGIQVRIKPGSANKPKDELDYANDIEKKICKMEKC
As for B1, the binding score came to 1.67.

For the molecule B2, the binding score is 1.2.

Turning to B3, the binding score amounted to 1.12.

With B4, the binding score came out at 2.59.

In the case of B5, the binding score is 0.749.

As to B6, the binding score is 1.3.

Take B7: the binding score is 1.09.

B8: the binding score stood at 3.59.

In turn, B9 gave a binding score of 1.01.

Regarding B10, the binding score was 1.88.

On to MAIHKALVMCLGLPLFLFPGAWAQGHVPPGCSQGLNPLYYNLCDRSGAWG (cysteine pairing not given here; also: human Fc-tagged dimer) [ADP328], for which the binding score was 1.01.

The molecule B11 showed a binding score of 0.643.

For the molecule B12, the binding score amounted to 0.991.
